Experimental data reported in patent publication US20250116658.

Key:
[1] = tested on: GzmB protease cleavable linker IEFDSG, synthetic peptide fluorogenic probe
[2] = tested on: MMP9 protease cleavable linker PLGLAG, synthetic peptide fluorogenic probe
[3] = tested on: Thrb protease cleavable linker LVPRGSG, synthetic peptide fluorogenic probe
[4] = tested on: Thrb substrate peptide (candidate 1) LVSPRSG, fluorogenic peptide

Substance | cleavage of synthetic peptide fluorogenic probe (corresponding pair: cleaved) [1] | cleavage of synthetic peptide fluorogenic probe (non-corresponding pair: not cleaved) [2] | cleavage of synthetic peptide fluorogenic probe (non-corresponding pair: not cleaved) [3] | cleavage of synthetic peptide fluorogenic probe (non-corresponding pair: not cleaved) [1] | cleavage of synthetic peptide fluorogenic probe (corresponding pair: cleaved) [2] | cleavage activity in fluorogenic assay [4] | cleavage of synthetic peptide fluorogenic probe (corresponding pair: cleaved) [3]
Granzyme B (GzmB) protease | specific cleavage was shown by only the corresponding proteases | specific cleavage was shown by only the corresponding proteases | specific cleavage was shown by only the corresponding proteases | – | – | – | –
matrix metallopeptidase 9 (MMP9) | – | – | specific cleavage was shown by only the corresponding proteases | specific cleavage was shown by only the corresponding proteases | specific cleavage was shown by only the corresponding proteases | – | –
Thrombin (Thrb) protease | – | specific cleavage was shown by only the corresponding proteases | – | specific cleavage was shown by only the corresponding proteases | – | showed higher cleavage activity than the original Thrb cleavable sequence design (LVPRGSG (SEQ ID NO: 23)) | specific cleavage was shown by only the corresponding proteases
